Earlier results as cited in PMC8557391.

Molecular target: Keap1 (Homo sapiens) (UniProt Q14145)
Test: FP

UniProt Q14145, sequence (Q14145 whole entry): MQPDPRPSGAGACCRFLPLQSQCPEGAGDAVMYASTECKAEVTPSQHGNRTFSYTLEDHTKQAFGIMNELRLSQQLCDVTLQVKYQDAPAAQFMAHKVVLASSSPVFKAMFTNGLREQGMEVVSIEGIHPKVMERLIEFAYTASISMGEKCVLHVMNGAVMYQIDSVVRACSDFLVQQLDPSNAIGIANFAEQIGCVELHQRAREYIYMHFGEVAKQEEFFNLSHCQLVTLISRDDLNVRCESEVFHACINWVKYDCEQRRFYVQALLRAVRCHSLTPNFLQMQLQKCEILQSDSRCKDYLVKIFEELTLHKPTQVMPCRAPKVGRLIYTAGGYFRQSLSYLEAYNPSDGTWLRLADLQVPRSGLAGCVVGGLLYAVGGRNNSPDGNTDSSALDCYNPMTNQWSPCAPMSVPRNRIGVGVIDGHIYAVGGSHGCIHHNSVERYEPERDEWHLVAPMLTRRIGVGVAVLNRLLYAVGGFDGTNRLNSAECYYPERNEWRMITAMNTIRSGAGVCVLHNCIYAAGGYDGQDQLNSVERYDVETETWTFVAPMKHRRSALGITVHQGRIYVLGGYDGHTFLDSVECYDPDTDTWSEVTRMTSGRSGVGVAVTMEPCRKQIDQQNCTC

Substance	Kd [nM]
Nrf2 10mer peptide (from UniProt Q16236)	51
Nrf2 9mer peptide (from UniProt Q16236)	54
